# Results as given in patent US20050221395A1, “Methods and products based on oligomerization of stress proteins” (priority 2002, published 2005).
# Tests used:
# [1] = test system: murine antigen presenting cells; test: nitric oxide (NO) secretion by antigen presenting cells; format: cell-based
# Procedure: (§1) Further experiments indiate that dimer content correlates with the ability of gp96 to stimulate chemokine/nitric oxide release by antigen presenting cells. Gp96 purified from the Meth-A murine fibrosarcoma tumors, subjected to both thermal and pH perturbations. This material was analyzed by SEC and NECA binding for its ability to induce murine antigen presenting cells to secrete MCP-1 and nitric oxide. […] NECA ligand binding and both MCP-1 and NO production decreased concomitantly with the loss of dimer. A similar trend was observed upon exposure of gp96 to pH 3, but not pH 7 or 9.
# [2] = NECA ligand binding
# Procedure: Dimer content also correlates with the ability of gp96 to bind NECA. Using the gp96-peptide complex isolated from CT-26 tumors, aliquots of each preparation were also analyzed for NECA ligand binding.
# [3] = test system: murine antigen presenting cells; test: MCP-1 secretion by antigen presenting cells; format: cell-based
# Procedure: as §1
# [4] = % dimer by size exclusion chromatography (SEC); format: physicochemical
# Procedure: Gp96-peptide complex was isolated from murine CT-26 tumors. Separate aliquots of each preparation were either maintained at 4° C. (untreated) or subjected to mild heat treatment to denature the complex.
# HPLC size exclusion chromatography is currently being optimized and has been run under a few different formats. The column was either a TSK 3000SWXL (Toso Haus) or a Superose 6 (Amersham Pharmacia) equilibrated in 10 mM phosphate buffer, pH 7.1, with 300 mM NaCl. All experiments were run at room temperature on a Waters Alliance or HP 1100 HPLC systems at a flow rate of 0.5 mL/min. The following results for human tumor derived gp96 (reported in Table 3, below) were all analyzed on the Superose 6 column. % dimer values represent the area percent of the dimer peak relative to total peak area.
molecule,measurement,setting,value
"gp96: Gp96 purified from the Meth-A murine fibrosarcoma tumors, subjected to thermal and pH perturbations (FIG. 2) (protein, UniProt P08113 22-802, looked up, Meth-A tumor derived) Endoplasmin: DDEVDVDGTVEEDLGKSREGSRTDDEVVQREEEAIQLDGLNASQIRELREKSEKFAFQAEVNRMMKLIINSLYKNKEIFLRELISNASDALDKIRLISLTDENALAGNEELTVKIKCDKEKNLLHVTDTGVGMTREELVKNLGTIAKSGTSEFLNKMTEAQEDGQSTSELIGQFGVGFYSAFLVADKVIVTSKHNNDTQHIWESDSNEFSVIADPRGNTLGRGTTITLVLKEEASDYLELDTIKNLVRKYSQFINFPIYVWSSKTETVEEPLEEDEAAKEEKEESDDEAAVEEEEEEKKPKTKKVEKTVWDWELMNDIKPIWQRPSKEVEEDEYKAFYKSFSKESDDPMAYIHFTAEGEVTFKSILFVPTSAPRGLFDEYGSKKSDYIKLYVRRVFITDDFHDMMPKYLNFVKGVVDSDDLPLNVSRETLQQHKLLKVIRKKLVRKTLDMIKKIADEKYNDTFWKEFGTNIKLGVIEDHSNRTRLAKLLRFQSSHHSTDITSLDQYVERMKEKQDKIYFMAGSSRKEAESSPFVERLLKKGYEVIYLTEPVDEYCIQALPEFDGKRFQNVAKEGVKFDESEKTKESREATEKEFEPLLNWMKDKALKDKIEKAVVSQRLTESPCALVASQYGWSGNMERIMKAQAYQTGKDISTNYYASQKKTFEINPRHPLIRDMLRRIKEDEDDKTVMDLAVVLFETATLRSGYLLPDTKAYGDRIERMLRLSLNIDPEAQVEEEPEEEPEDTSEDAEDSEQDEGEEMDAGTEEEEEETEKESTEKDEL",ability to stimulate murine APC secretion of NO,[1]; heated to 50° C. and 60° C. for 30 minutes (FIG. 2D),rapid drop
same,NO secretion by murine APCs,[1]; pH 3.0 (FIG. 2H),markedly reduced
same,NECA binding ability,"[2]; heated to 50° C. and 60° C., at 30 minutes (FIG. 2B)",Neither sample of gp96 could bind NECA
same,NECA binding ability,[2]; pH 3.0 (FIG. 2F),markedly reduced
same,ability to stimulate murine APC secretion of MCP-1,[3]; heated to 50° C. and 60° C. for 30 minutes (FIG. 2C),rapid drop
same,MCP-1 secretion by murine APCs,[3]; pH 3.0 (FIG. 2G),markedly reduced
same,dimer level,"[4]; heated at 50° C. and 60° C., at 30 minutes (FIG. 2A)",Neither sample contained dimers
same,dimer levels,[4]; pH 3.0 (FIG. 2E),markedly reduced
